Data reported in US6617117.

T1: GST-SAP1(267-431), P28324
T1 chain: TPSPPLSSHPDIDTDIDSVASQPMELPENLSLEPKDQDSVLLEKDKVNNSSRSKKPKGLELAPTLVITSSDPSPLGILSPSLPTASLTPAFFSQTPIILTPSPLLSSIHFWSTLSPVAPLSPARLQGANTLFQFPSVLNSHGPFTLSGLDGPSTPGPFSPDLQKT

T2: GST-ATF2(19-96), P15336
T2 chain: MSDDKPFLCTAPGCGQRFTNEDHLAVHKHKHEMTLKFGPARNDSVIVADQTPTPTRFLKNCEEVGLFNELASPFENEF

T3: GST-cJun(1-194), P05412
T3 chain: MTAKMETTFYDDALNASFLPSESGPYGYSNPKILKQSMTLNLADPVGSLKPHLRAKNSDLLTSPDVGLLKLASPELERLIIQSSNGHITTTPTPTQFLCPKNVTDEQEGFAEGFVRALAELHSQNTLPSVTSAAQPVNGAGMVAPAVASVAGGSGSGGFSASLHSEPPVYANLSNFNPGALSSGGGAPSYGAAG

T4: rat GST-SAPK3, Q63538
T4 chain: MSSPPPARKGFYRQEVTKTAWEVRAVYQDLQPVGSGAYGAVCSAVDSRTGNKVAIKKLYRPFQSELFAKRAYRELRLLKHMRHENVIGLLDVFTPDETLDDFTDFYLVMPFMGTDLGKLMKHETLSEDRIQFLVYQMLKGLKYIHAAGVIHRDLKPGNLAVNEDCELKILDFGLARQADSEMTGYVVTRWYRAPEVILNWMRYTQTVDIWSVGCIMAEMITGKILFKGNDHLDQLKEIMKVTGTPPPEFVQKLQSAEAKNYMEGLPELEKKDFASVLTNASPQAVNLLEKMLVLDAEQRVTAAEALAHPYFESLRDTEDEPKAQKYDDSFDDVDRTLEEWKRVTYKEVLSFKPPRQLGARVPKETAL

T5: MalE-Mpk2, the Xenopus homologue of SAPK2a, P47812
T5 chain: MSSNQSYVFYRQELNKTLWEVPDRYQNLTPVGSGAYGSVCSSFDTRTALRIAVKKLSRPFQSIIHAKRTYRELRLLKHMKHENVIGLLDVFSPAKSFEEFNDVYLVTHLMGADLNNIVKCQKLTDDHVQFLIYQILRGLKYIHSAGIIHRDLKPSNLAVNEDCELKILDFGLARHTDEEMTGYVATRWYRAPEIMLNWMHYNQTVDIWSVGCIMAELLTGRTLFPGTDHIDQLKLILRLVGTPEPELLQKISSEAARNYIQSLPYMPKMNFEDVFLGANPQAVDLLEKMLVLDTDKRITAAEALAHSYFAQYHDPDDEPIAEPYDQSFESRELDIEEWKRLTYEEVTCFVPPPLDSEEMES

T6: human GST-SAPK4
T6 chain: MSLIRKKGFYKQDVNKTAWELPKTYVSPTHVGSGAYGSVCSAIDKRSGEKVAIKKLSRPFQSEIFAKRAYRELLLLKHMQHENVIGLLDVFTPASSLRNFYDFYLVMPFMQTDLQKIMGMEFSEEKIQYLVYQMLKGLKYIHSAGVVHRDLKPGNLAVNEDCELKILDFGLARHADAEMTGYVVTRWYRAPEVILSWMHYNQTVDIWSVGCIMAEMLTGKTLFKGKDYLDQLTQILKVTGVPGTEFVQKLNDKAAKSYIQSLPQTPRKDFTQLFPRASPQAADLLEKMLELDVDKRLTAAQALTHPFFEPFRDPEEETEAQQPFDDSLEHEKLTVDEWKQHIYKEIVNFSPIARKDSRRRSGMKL

B1: human GST-SAPK2b (protein)
chain: MSGPRAGFYRQELNKTVWEVPQRLQGLRPVGSGAYGSVCSAYDARLRQKVAVKKLSRPFQSLIHARRTYRELRLLKHLKHENVIGLLDVFTPATSIEDFSEVYLVTTLMGADLNNIVKCQALSDEHVQFLVYQLLRGLKYIHSAGIIHRDLKPSNVAVNEDCELRILDFGLARQADEEMTGYVATRWYRAPEIMLNWMHYNQTVDIWSVGCIMAELLQGKALFPGSDYIDQLKRIMEVVGTPSPEVLAKISSEHARTYIQSLPPMPQKDLSSIFRGANPLAIDLLGRMLVLDSDQRVSAAEALAHAYFSQYHDPEDEPEAEPYDESVEAKERTLEEWKELTYQEVLSFKPPEPPKPPGSLEIEQ
B2: SKK3 purified from rabbit skeletal muscle (protein)
chain: MSQSKGKKRNPGLKIPKEAFEQPQTSSTPPRDLDSKACISIGNQNFEVKADDLEPIMELGRGAYGVVEKMRHVPSGQIMAVKRIRATVNSQEQKRLLMDLDISMRTVDCPFTVTFYGALFREGDVWICMELMDTSLDKFYKQVIDKGQTIPEDILGKIAVSIVKALEHLHSKLSVIHRDVKPSNVLINTLGQVKMCDFGISGYLVDSVAKTIDAGCKPYMAPERINPELNQKGYSVKSDIWSLGITMIELAILRFPYDSWGTPFQQLKQVVEEPSPQLPADKFSAEFVDFTSQCLKKNSKERPTYPELMQHPFFTVHESKATDVASFVKLILGD
B3: human GST-SAPK4 (protein)
chain: T6 chain
B4: rat GST-SAPK3 (protein)
chain: T4 chain
B5: MalE-Mpk2, the Xenopus homologue of SAPK2a (protein)
chain: T5 chain

Assays:
[1] = target: T1, GST-SAP1(267-431), P28324
[2] = target: T2, GST-ATF2(19-96), P15336
[3] = target: GST-Elk1(307-428) [GST: P08515]
[4] = target: MAPKAP-K2 (substrate of Table 1, construct not stated), P49137
[5] = target: GST-MAPKAP-K3, Q16644
[6] = target: T3, GST-cJun(1-194), P05412
[7] = target: GST-SAP2(221-417) [GST: P08515]
[8] = target: T4, rat GST-SAPK3, Q63538
[9] = target: T5, MalE-Mpk2, the Xenopus homologue of …
[10] = target: GST-SAPK4(D168A)
[11] = target: T6, human GST-SAPK4
[12] = target: GST-MAPKAP-K2(5-400), P49137
[13] = target: GST-MAPKAP-K2(46-400), P49137
Chain of GST-MAPKAP-K2(46-400), P49137 (P49137 46-400): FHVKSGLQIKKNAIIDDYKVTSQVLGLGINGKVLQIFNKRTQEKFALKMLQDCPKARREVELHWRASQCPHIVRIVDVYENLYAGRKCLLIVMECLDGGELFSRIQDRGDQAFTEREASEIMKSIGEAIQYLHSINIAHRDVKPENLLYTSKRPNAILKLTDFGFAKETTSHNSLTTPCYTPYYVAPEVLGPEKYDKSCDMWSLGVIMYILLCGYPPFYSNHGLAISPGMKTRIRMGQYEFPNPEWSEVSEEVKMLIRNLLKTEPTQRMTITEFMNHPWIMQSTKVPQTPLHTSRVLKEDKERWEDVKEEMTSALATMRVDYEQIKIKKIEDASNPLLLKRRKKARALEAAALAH

Chain of GST-MAPKAP-K3, Q16644 (Q16644 whole entry, looked up): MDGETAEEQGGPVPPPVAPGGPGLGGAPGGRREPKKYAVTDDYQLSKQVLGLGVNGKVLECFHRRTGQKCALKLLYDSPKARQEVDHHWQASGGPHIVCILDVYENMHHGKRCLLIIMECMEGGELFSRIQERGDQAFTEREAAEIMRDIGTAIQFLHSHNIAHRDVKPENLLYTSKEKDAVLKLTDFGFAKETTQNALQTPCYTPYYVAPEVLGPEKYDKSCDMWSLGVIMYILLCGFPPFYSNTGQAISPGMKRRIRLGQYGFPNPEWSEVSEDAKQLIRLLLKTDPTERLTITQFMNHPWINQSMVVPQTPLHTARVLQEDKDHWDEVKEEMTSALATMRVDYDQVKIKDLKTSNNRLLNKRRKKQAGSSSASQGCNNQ
Chain of MAPKAP-K2 (substrate of Table 1, construct not stated), P49137 (P49137 46-400): as the sequence (P49137 46-400) above
Chain of GST-MAPKAP-K2(5-400), P49137 (P49137 5-400): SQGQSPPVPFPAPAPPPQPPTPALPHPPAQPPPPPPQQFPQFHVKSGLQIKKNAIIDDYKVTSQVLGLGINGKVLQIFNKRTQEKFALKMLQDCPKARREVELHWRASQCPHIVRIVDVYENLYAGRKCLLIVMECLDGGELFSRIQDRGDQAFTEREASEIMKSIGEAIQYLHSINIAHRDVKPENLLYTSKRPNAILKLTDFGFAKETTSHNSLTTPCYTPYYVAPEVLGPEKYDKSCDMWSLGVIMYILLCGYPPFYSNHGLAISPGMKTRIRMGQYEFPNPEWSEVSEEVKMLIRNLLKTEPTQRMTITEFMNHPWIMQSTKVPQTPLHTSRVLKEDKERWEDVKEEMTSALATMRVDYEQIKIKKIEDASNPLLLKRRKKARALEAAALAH

Row | Protein | rate of phosphorylation of substrate (1 µM) relative to MBP (% of rate with MBP) [1] | rate of phosphorylation of substrate (1 µM) relative to MBP (% of rate with MBP) [2] | rate of phosphorylation of substrate (1 µM) relative to MBP (% of rate with MBP) [3] | rate of phosphorylation of substrate (1 µM) relative to MBP (% of rate with MBP) [4] | rate of phosphorylation of substrate (1 µM) relative to MBP (% of rate with MBP) [5] | rate of phosphorylation of substrate (1 µM) relative to MBP (% of rate with MBP) [6] | rate of phosphorylation of substrate (1 µM) relative to MBP (% of rate with MBP) [7] | rate of phosphorylation of substrate (1 µM) relative to MBP (relative to MBP (=100)) [1] | phosphorylation sites on ATF2 (32P, mutants, phosphoamino acid analysis) [2] | rate of phosphorylation of substrate (1 µM) relative to MBP (relative to MBP (=100)) [2] | rate of phosphorylation of substrate (1 µM) relative to MBP (relative to MBP (=100)) [3] | rate of phosphorylation of substrate (1 µM) relative to MBP (relative to MBP (=100)) [6] | further results
1 | B1 | 27 | 62 | 136 | 83 | 66 | 7 | 18 | – | – | – | – | – | –
2 | B2 | – | – | – | – | – | – | – | – | – | – | – | – | activation of SAPK3 (MBP kinase activity) in vitro [8]: SAPK3 was activated in vitro by a highly purified preparation of SKK3 from skeletal muscle; activation of SAPK2 (MBP kinase activity) in vitro [9]: The rate of activation of SAPK3 by SKK3 was similar to that of SAPK2; 32P phosphorylation, phosphoamino acid analysis [10]: the inactive SAPK4 mutant could only be phosphorylated on tyrosine and not on threonine; activation of SAPK4 (MBP kinase activity) in vitro [11]: SAPK4 was activated in vitro by a highly purified preparation of SKK3 from skeletal muscle; phosphorylation stoichiometry at plateau [11]: reached a plateau at ˜1.6 mol/mol subunit; rate of activation compared with SAPK2a [11]: occurred two- to three-fold more slowly than that of SAPK2a
3 | B3 | 62 | – | 175 | 28 | 18 | 6 | 8 | – | – | – | – | – | activation of MAPKAP-K2 (initial rate and half-time for maximal activation) [12]: 20 times slower; activation of MAPKAP-K3 (initial rate and half-time for maximal activation) [5]: 20 times slower
4 | B4 | – | – | – | 25 | 20 | – | – | 108 | SAPK2 and SAPK3 phosphorylate ATF2 at Thr69 and Thr-71, and that only SAPK3 phosphorylates Ser-90 | 107 | 181 | 2 | activation of MAPKAP-K2 (initial rate and half time for maximal activation) [13]: 20 times slower; activation of MAPKAP-K3 (initial rate and half time for maximal activation) [5]: 20 times slower; rate of phosphorylation of substrate (1 µM) relative to MBP (relative to MBP (=100)) [7]: 20
5 | B5 | 25 | 40 | 90 | 90 | 87 | 4 | – | 55 | SAPK2 and SAPK3 phosphorylate ATF2 at Thr69 and Thr-71, and that only SAPK3 phosphorylates Ser-90 | 86 | 122 | 2 | –
